Measurements: patent publication US20110229476A1 (Bayer, published 2011)

Target: T1, tumor-associated antigen RG1 (Homo sapiens (Human), UniProt Q9BUD6 27-331)
T1 construct: Coated directly on 96-well plates at 1 ug/ml; also called RGI
T1 sequence: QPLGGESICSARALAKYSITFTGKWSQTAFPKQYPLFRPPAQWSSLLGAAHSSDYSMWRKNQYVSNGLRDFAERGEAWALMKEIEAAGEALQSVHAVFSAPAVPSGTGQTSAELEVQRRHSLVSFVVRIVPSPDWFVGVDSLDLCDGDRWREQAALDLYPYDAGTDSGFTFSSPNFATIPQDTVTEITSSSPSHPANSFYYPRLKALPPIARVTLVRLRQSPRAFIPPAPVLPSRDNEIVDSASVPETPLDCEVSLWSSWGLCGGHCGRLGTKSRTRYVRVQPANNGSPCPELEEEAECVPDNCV
Experiment: RG1-binding ELISA, RG1 coated on plate, 4-parameter fit
Protocol: RG1-binding ELISA. A bispecific antibody containing Linker 1, anti-RG1 antibody 19G9, and polyclonal nonimmune control human IgG kappa were analyzed for binding to RG-1. Curve fitting of the data was performed using a 4-parameter equation with the Solver function in Microsoft Excel.
Ninety-six well plates were coated with RG1 (1 μg/ml) by overnight incubation, and the plates were then washed (5×) with PBS containing 0.5% Tween-20. Samples and controls (serially diluted) were added to the wells and incubated for 1 hr, followed by washes (5×) with PBS containing 0.5% Tween-20. Horserandish peroxidase (HRP)-conjugated anti-human IgG or HRP-conjugated anti-human Fab were diluted in PBS (1:5000) and added to each well. Following a 1 hr incubation, the plates were washed again. Amplex Red (10 μg/ml) was added to each well, and the signal was read using a plate reader. The data was analyzed using Softmax (Molecular Devices, Sunnyvale, Calif.).

IC50: 1.4 nM
B1: anti-RG1 IgG 19G9 (antibody, V domains shown)
VH: QVQLVQSGGGLVQPGGSLRLSCAGSGFTFSSYVMHWLRQAPGKGLEWVSVIGTGGVTHYADSVKGRFTISRDNAKNSLYLQMNSLRAEDTAVYYCARWGYYGSGSYENDAFDIWGQGTMVTVSS
VL: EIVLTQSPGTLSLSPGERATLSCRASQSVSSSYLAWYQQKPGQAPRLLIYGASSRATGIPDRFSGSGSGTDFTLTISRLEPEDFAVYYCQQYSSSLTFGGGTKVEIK
